Patent publication US20250101107A1 (REPERTOIRE IMMUNE MEDICINES, published 2025)

B1: H6K3-IgG-IL12 (1×HC) (other)
heavy 1: EVQLVQSGAEVKKPGATVKISCKASGYTFTDFTMHWVQQAPGKGLEWIGLVNPNNGGNIYAEKFQGRVTLTVDTSTSTAYMELSSLRSEDTAVYYCGRVPLYTSHGMDYWGQGTLVTVSSASTKGPSVFPLAPSSKSTSGGTAALGCLVKDYFPEPVTVSWNSGALTSGVHTFPAVLQSSGLYSLSSVVTVPSSSLGTQTYICNVNHKPSNTKVDKKVEPKSCDKTHTCPPCPAPEAAGGPSVFLFPPKPKDTLMISRTPEVTCVVVDVSHEDPEVKFNWYVDGVEVHNAKTKPREEQYASTYRVVSVLTVLHQDWLNGKEYKCKVSNKALGAPIEKTISKAKGQPREPQVYTLPPSRDELTKNQVSLWCLVKGFYPSDIAVEWESNGQPENNYKTTPPVLDSDGSFFLYSKLTVDKSRWQQGNVFSCSVMHEALHNHYTQKSLSLSPGKGGGSGGGGSGGGGSGGGGSIWELKKDVYVVELDWYPDAPGEMVVLTCDTPEEDGITWTLDQSSEVLGSGKTLTIQVKEFGDAGQYTCHKGGEVLSHSLLLLHKKEDGIWSTDILKDQKEPKNKTFLRCEAKNYSGRFTCWWLTTISTDLTFSVKSSRGSSDPQGVTCGAATLSAERVRGDNKEYEYSVECQEDSACPAAEESLPIEVMVDAVHKLKYENYTSSFFIRDIIKPDPPKNLQLKPLKNSRQVEVSWEYPDTWSTPHSYFSLTFCVQVQGKSKREKKDRVFTDKTSATVICRKNASISVRAQDRYYSSSWSEWASVPCSGGGSGGGSGGGSGGGSRNLPVATPDPGMFPCLHHSQNLLRAVSNMLQKARQTLEFYPCTSEEIDHEDITKDKTSTVEACLPLELTKNESCLNSRETSFITNGSCLASRKTSFMMALCLSSIYEDLKMYQVEFKTMNAKLLMDPKRQIFLDQNMLAVIDELMQALNFNSETVPQKSSLEEPDFYKTKIKLCILLHAFRIRAVTIDRVMSYLNAS
heavy 2: EVQLVQSGAEVKKPGATVKISCKASGYTFTDFTMHWVQQAPGKGLEWIGLVNPNNGGNIYAEKFQGRVTLTVDTSTSTAYMELSSLRSEDTAVYYCGRVPLYTSHGMDYWGQGTLVTVSSASTKGPSVFPLAPSSKSTSGGTAALGCLVKDYFPEPVTVSWNSGALTSGVHTFPAVLQSSGLYSLSSVVTVPSSSLGTQTYICNVNHKPSNTKVDKKVEPKSCDKTHTCPPCPAPEAAGGPSVFLFPPKPKDTLMISRTPEVTCVVVDVSHEDPEVKFNWYVDGVEVHNAKTKPREEQYASTYRVVSVLTVLHQDWLNGKEYKCKVSNKALGAPIEKTISKAKGQPREPQVYTLPPSRDELTKNQVSLSCAVKGFYPSDIAVEWESNGQPENNYKTTPPVLDSDGSFFLVSKLTVDKSRWQQGNVFSCSVMHEALHNHYTQKSLSLSPGK
light: EIVLTQSPATLSLSPGERATISCRASESVDSYDINSMHWYQQKPGQAPRLLIYRASHLQSGIPARFSGSGSRTDFTLTISSLEPEDFATYYCQQSNEDPLTFGQGTKLEIKRTVAAPSVFIFPPSDEQLKSGTASVVCLLNNFYPREAKVQWKVDNALQSGNSQESVTEQDSKDSTYSLSSTLTLSKADYEKHKVYACEVTHQGLSSPVTKSFNRGEC
notes: also called hCD8IgG-1×IL12 (HC); hCD8IgG-IL12 (1 × HC)
B2: rIL-12 (ligand)
alpha: RVIPVSGPARCLSQSRNLLKTTDDMVKTAREKLKHYSCTAEDIDHEDITRDQTSTLKTCLPLELHKNESCLATRETSSTTRGSCLPPQKTSLMMTLCLGSIYEDLKMYQTEFQAINAALQNHNHQQIILDKGMLVAIDELMQSLNHNGETLRQKPPVGEADPYRVKMKLCILLHAFSTRVVTINRVMGYLSSA
beta: MWELEKDVYVVEVDWTPDAPGETVNLTCDTPEEDDITWTSDQRHGVIGSGKTLTITVKEFLDAGQYTCHKGGETLSHSHLLLHKKENGIWSTEILKNFKNKTFLKCEAPNYSGRFTCSWLVQRNMDLKFNIKSSSSSPDSRAVTCGMASLSAEKVTLDQRDYEKYSVSCQEDVTCPTAEETLPIELALEARQQNKYENYSTSFFIRDIIKPDPPKNLQMKPLKNSQVEVSWEYPDSWSTPHSYFSLKFFVRIQRKKEKMKETEEGCNQKGAFLVEKTSTEVQCKGGNVCVQAQDRYYNSSCSKWACVPCRVRS
notes: also called rmIL-12; non-targeted recombinant mouse IL-12; copies: 1 + 1

Experiments:
[1] = target: T1, human CD8 on human T cells (human, UniProt P01732 22-235; P10966 22-210); assay: cell-based or functional assay
T1 sequence (P01732 22-235, chain 1 of 2): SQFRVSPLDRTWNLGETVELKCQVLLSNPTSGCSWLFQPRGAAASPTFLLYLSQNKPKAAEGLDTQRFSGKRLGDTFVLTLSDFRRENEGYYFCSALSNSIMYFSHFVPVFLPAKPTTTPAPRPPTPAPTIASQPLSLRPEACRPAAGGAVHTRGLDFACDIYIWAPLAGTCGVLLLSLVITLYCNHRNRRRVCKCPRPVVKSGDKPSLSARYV
T1 sequence (P10966 22-210, chain 2 of 2): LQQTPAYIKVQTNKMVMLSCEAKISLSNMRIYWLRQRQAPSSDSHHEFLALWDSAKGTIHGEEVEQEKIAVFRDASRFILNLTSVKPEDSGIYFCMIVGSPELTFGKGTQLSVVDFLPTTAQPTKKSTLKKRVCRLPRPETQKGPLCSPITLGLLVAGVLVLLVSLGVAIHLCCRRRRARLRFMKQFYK

[2] = target: T2, cynomolgus monkey CD8 on cynomolgus cells (cynomolgus monkey); assay: flow cytometry, cynomolgus PBMCs incubated 30 min at 37 C with the fusion protein, anti-IL-12, gated on CD8+ T cells
T2 construct: whole, on cells; also called cynomolgus CD8
Procedure: (§1) Fusion proteins H6K3-IgG-IL12 (LC) and H6K3-IgG-IL12 (1×HC) were also evaluated for their ability to bind CD8-expressing cells in human and cynomolgus monkey PBMCs. Briefly, 5×10⁴ human PBMCs (StemCell Technologies) or cynomolgus monkey PBMCs (iQ Biosciences) were incubated with 7 serial 5-fold dilutions of one of the two aforementioned H6K3-IgG-IL12 constructs for 30 minutes at 37° C. Cells were washed twice with MACS buffer and stained with viability dye and fluorophore-conjugated antibodies against IL-12 and cell-surface markers for 20 minutes at 4° C. Cells were analyzed on a FACSCelesta using Diva software (BD Biosciences). Binding activity for all treatments was quantified and represented as the mean fluorescence intensity values of IL-12 on human CD8+ T cells and NK cells (FIGS. 17A-17B) and on cynomolgus monkey CD8+ T cells and NK cells (FIGS. 17C-17D). For the H6K3-IgG-IL12 (LC) treatments, results are also reported as the frequency of IL-12+CD8+ T cells and NK cells (FIG. 17E). As shown in FIGS. 17A-17D, both H6K3-IgG-IL12 (LC) and H6K3-IgG-IL12 (1×HC) were able to selectively bind human CD8+ T cells over NK cells at a range of concentrations. Only a small proportion of human NK cells express CD8, and therefore the H6K3-IgG-IL12 (LC) construct only bound a small proportion of human NK cells (FIG. 17E upper left and upper right). […]

[3] = target: T2, cynomolgus monkey CD8 on cynomolgus …; assay: cell-based or functional assay
[4] = target: T1, human CD8 on human T cells; assay: flow cytometry, human PBMCs incubated 30 min at 37 C with the fusion protein, anti-IL-12, gated on CD8+ T cells
Procedure: as §1

[5] = target: T1, human CD8 on human T cells; assay: flow cytometry, human PBMCs incubated 30 min at 37 C with the fusion protein, AF647 anti-human IL-12, gated on CD8+ T cells
Procedure: Fusion proteins H6K3-IgG-IL12 (LC) and H6K3-IgG-IL12 (1×HC) were evaluated for their ability to selectively bind human CD8+ T cells in PBMCs. Briefly, 5×10⁴ human PBMCs (StemCell Technologies) were incubated with 7 serial 5-fold dilutions of one of the two aforementioned H6K3-IgG-IL12 constructs for 30 minutes at 37° C. Cells were washed twice with MACS buffer and stained for 20 minutes at 4° C. with fluorophore-conjugated anti-CD3, anti-CD4, anti-CD8, anti-CD56, and anti-IL12 antibodies, and viability dye. Cells were analyzed on a FACSCelesta using Diva software (BD Biosciences). Binding activity was quantified and represented as the mean fluorescent intensity values of IL-12 on either CD8+ T cells or NK Cells. As shown in FIGS. 16A-16B, both H6K3-IgG-IL12 (LC) and H6K3-IgG-IL12 (1×HC) were able to selectively bind human CD8+ T cells over NK cells at a range of concentrations.

[6] = target: T2, cynomolgus monkey CD8 on cynomolgus …; assay: flow cytometry, cynomolgus PBMCs incubated 30 min at 37 C with the fusion protein, anti-IL-12, gated on NK cells, which express CD8 in the cynomolgus monkey
Procedure: as §1

mouse CD8 on mouse cells = target: T3, mouse CD8 on mouse cells (mouse, UniProt P01731 28-247); assay: in vivo, B16F10 tumour-bearing mice, flow cytometry of peripheral blood 4 days after the first i.v. dose; % IL-12p40+ of CD8+ T cells
T3 construct: whole, on cells; Carried by CD8+ T cells and CD8+ dendritic cells of C57BL/6 mice, read ex vivo after dosing; also called mCD8
T3 sequence (P01731 28-247): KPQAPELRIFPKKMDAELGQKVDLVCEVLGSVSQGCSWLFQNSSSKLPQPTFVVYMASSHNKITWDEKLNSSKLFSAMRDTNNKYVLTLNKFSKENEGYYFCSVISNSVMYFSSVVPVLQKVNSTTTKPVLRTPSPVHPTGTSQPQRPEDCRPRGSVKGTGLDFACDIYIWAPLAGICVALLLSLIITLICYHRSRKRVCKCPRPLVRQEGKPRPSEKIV
Procedure: Mice were injected weekly for a total of 4 doses, at a dose equivalent to 10 μg of recombinant IL12. Tumor volume was measured twice per week, and mice were euthanized if tumor volume exceeded 2000 mm³. […] Specifically, in the MC38 model, treatment with the CD8IgG-IL12 (LC) Clone 2 construct controlled tumor growth up to day 21 and yielded 3/8 complete responders, whereas treatment with the CD8IgG-IL12 (1×HC) construct controlled tumor growth for the entire duration of the study and yielded 7/8 complete responders (FIGS. 6A-6C). In the B16-F10 model, which is typically less responsive to immunotherapy, both constructs limited tumor growth for up to 14 days after the initial dose (FIGS. 7A-7C).
In the same study, the two anti-CD8:IL-12 fusion constructs were also evaluated for their ability to be retained in tissues. Peripheral blood cells were collected from MC38 and B16-F10 tumor-bearing mice 4 days after administration of the first dose of the IL-12 construct. Samples were analyzed by flow cytometry. In the case of the MC38 tumor-bearing mice, IL-12 was detected on the surface of CD8⁺ T cells 4 days post-treatment with either of the two anti-CD8:IL-12 fusion protein constructs, but not on the surface of CD4⁺ T cells or NK cells (FIG. 8A). […]

Row | Binder | EC50 for stimulation of pSTAT4 signaling, human CD8+ T cells in activated PBMCs [1] [pM] | EC50 (read off the curve) [2] [pM] | EC50 for stimulation of pSTAT4 signaling, cynomolgus CD8+ T cells in activated PBMCs [3] [pM] | EC50 for stimulation of pSTAT4 signaling, cynomolgus NK cells in activated PBMCs [3] [pM] | EC50 (read off the curve) [4] [pM] | EC50 (read off the curve) [5] [pM] | EC50 (read off the curve) [6] [pM] | binding result (mouse CD8 on mouse cells)
1 | B1 | 2.3 | ~50 | 2.3 | 2 | ~40 | ~60 | ~90 | 
2 | B2 |  |  |  |  |  |  |  | no binding
